Test results published in US20220033501A1 (SHANGHAI PHARMAEXPLORER, published 2022).

T1: monkey TIM-3 extracellular domain protein with hFc tag (cTIM-3-hFc) (monkey)
T1 construct: not shown: human IgG Fc fragment (hFc) of the pCpC vector
T1 chain: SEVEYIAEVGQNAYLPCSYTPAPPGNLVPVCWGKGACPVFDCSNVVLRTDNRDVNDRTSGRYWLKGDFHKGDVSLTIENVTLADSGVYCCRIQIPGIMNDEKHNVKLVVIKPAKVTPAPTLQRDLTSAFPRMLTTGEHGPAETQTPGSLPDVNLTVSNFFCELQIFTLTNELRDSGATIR

T2: human TIM-3 on CHOK1 stable cell line (CHOK1-hTIM-3) (human, UniProt Q8TDQ0 22-301)
T2 sequence: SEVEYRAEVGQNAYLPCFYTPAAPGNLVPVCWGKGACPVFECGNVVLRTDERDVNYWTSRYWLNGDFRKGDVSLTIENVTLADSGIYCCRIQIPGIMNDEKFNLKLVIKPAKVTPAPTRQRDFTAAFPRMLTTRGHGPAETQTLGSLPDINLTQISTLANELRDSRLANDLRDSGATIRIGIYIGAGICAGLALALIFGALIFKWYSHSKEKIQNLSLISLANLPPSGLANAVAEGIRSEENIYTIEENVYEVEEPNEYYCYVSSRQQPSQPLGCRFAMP

T3: TIM-3 protein on human peripheral blood mononuclear lymphocytes (PBMC) (human, UniProt Q8TDQ0 22-301)
T3 sequence: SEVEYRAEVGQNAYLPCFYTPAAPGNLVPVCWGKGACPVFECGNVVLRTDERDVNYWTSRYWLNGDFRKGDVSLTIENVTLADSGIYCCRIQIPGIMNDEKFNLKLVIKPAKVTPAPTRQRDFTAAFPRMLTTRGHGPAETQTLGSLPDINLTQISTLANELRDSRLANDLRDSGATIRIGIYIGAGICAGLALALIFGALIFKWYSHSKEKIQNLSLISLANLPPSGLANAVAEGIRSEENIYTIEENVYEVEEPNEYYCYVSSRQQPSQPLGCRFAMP

T4: murine TIM-3 extracellular domain protein with hFc tag (mTIM-3-hFc) (mouse, UniProt Q8VIM0 29-191)
T4 construct: also called mouse TIM-3 extracellular domain protein; not shown: human IgG Fc fragment (hFc) of the pCpC vector
T4 chain: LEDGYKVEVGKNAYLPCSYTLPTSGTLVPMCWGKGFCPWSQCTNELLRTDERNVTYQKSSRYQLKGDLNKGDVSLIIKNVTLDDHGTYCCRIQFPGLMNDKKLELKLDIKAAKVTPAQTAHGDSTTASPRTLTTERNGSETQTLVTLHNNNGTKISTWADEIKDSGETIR

T5: human TIM-3 extracellular domain protein with hFc tag (hTIM-3-hFc) (human, UniProt Q8TDQ0 22-200)
T5 construct: not shown: human IgG Fc fragment (hFc) of the pCpC vector
T5 sequence: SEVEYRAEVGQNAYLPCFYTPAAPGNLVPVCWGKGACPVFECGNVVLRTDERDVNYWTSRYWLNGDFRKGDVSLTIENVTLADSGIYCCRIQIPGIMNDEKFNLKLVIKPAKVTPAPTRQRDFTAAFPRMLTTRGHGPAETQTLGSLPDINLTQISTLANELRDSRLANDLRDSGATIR


Tests used:
[1] = molecular target: T1, monkey TIM-3 extracellular domain …; assay: ELISA, coated monkey TIM-3 ECD protein, 6.6667 nM antibody
[2] = molecular target: T1, monkey TIM-3 extracellular domain …; assay: ELISA, coated monkey TIM-3 ECD protein, 0.0007 nM antibody
[3] = molecular target: T1, monkey TIM-3 extracellular domain …; assay: ELISA, coated monkey TIM-3 ECD protein, 0 nM antibody
[4] = molecular target: T2, human TIM-3 on CHOK1 stable cell line …; assay: FACS, CHOK1-hTIM-3 cells, 0.32 nM antibody
[5] = molecular target: T3, TIM-3 protein on human peripheral blood …; assay: cell-based or functional assay
[6] = molecular target: T4, murine TIM-3 extracellular domain …; assay: ELISA, coated mouse TIM-3 ECD protein, 0.6667 nM antibody
[7] = molecular target: T5, human TIM-3 extracellular domain …; assay: ELISA, coated human TIM-3 ECD protein, 0 nM antibody
[8] = molecular target: T5, human TIM-3 extracellular domain …; assay: ELISA, coated human TIM-3 ECD protein, 0.0001 nM antibody

Row | Binder | OD450 [1] | OD450 [2] | OD450 [3] | Mean fluorescence intensity [4] | IFN-γ production (donor X); antibody 0.1 µg/ml, N = 1 [5] | IFN-γ production (donor X); antibody 0.1 µg/ml, N = 2 [5] | IFN-γ production (donor X); antibody 1 µg/ml, N = 1 [5] | IFN-γ production (donor X); antibody 1 µg/ml, N = 2 [5] | IFN-γ production (donor X); antibody 10 µg/ml, N = 1 [5] | IFN-γ production (donor X); antibody 10 µg/ml, N = 2 [5] | IFN-γ production (donor X); antibody '0' (4th head as printed), N = 1 [5] | IFN-γ production (donor X); antibody '0' (4th head as printed), N = 2 [5] | IFN-γ production (donor X); antibody '0' (5th head as printed), N = 1 [5] | IFN-γ production (donor X); antibody '0' (5th head as printed), N = 2 [5] | OD450 [6] | OD450 [7] | OD450 [8]
1 | 18D2H2 fully human TIM-3 antibody (human IgG4, kappa) (antibody, V domains shown) VH: EVQLVESGGDLVQPGGSLRLSCAASGFTFSTYWMTWVRQAPGRGLEWVANIKQDGSAKYYVDSVKGRFTLSRDDAKNSLYLQMNSLRAEDTAVYYCARGSNWFDYWGQGTLVTVSS VL: ETVMTQSPATLSVSPGERATLSCRANQNVYSNLAWYQQKPGQAPRLLIYDASTRATGFPARFSGSGSGTEFTLTISSLQSEDFAVYYCQQYNNWPLTFGGGTKVEIK | 3.3 | 0.15 | 0.13 | 93.1 | 2660 pg/mL | 2650 pg/mL | 3000 pg/mL | 3140 pg/mL | 2810 pg/mL | 3070 pg/mL | 2280 pg/mL | 2590 pg/mL | 2340 pg/mL | 2170 pg/mL | 0.22 | 0.07 | 0.08
2 | 7A4F10 fully human TIM-3 antibody (human IgG4, kappa) (antibody, V domains shown) VH: EVQLLESGGGLVQPGGSLRLSCAASGFTFRTHLISWVRQAPGKGLEWVAAITGSGGSTYYADSVKGRFIISRDNSKNTLFLQMNSLRAEDTAVYYCAKDGGSGSYDDFWGQGTLVTVSS VL: ETVLTQSPVTLSLSPGERATLSCRASQSVGSYLAWYQQKPGQAPRLLIYDASNRATGIPARFSGSGSGTDFTLTISSLEPEDFAVYYCQQRSNWPPTFGQGTKVEIK | 3.12 | 0.14 | 0.13 | 90.1 | 2930 pg/mL | 2730 pg/mL | 2920 pg/mL | 2780 pg/mL | 2900 pg/mL | 2360 pg/mL | 2340 pg/mL | 2370 pg/mL | 2290 pg/mL | 2230 pg/mL | 0.25 | 0.08 | 0.08

Further lines, results first:

Row | OD450 [1] | OD450 [2] | OD450 [3] | Mean fluorescence intensity [4] | IFN-γ production (donor X); antibody 0.1 µg/ml, N = 1 [5] | IFN-γ production (donor X); antibody 0.1 µg/ml, N = 2 [5] | IFN-γ production (donor X); antibody 1 µg/ml, N = 1 [5] | IFN-γ production (donor X); antibody 1 µg/ml, N = 2 [5] | IFN-γ production (donor X); antibody 10 µg/ml, N = 1 [5] | IFN-γ production (donor X); antibody 10 µg/ml, N = 2 [5] | IFN-γ production (donor X); antibody '0' (4th head as printed), N = 1 [5] | IFN-γ production (donor X); antibody '0' (4th head as printed), N = 2 [5] | IFN-γ production (donor X); antibody '0' (5th head as printed), N = 1 [5] | IFN-γ production (donor X); antibody '0' (5th head as printed), N = 2 [5] | OD450 [6] | OD450 [7] | OD450 [8] | Binder
3 | 3.39 | 0.19 | 0.17 | 76.9 | 2770 pg/mL | 2820 pg/mL | 2930 pg/mL | 3550 pg/mL | 2980 pg/mL | 3330 pg/mL | 2600 pg/mL | 2540 pg/mL | 2280 pg/mL | 2390 pg/mL | 0.27 | 0.09 | 0.09 | 34B6D8 fully human TIM-3 antibody (human IgG4, kappa) (antibody, V domains shown) VH: EVQLVESGGGLVQPGGSLRLSCAASGFTFSTYWMTWVRQAPGKRLEWVANIKQGGGDKYYVDSVKGRFTISTDNAKNSLYLQMNSLRAEDTAVYYCARGSNWFDPWGQGTLVTVSS VL: EIVMTQSPATLSMSPGERATLSCRASQSVYDNLAWYQQKPGQAPRLLIYGASTRATGIPARFSGSGSGTEFTLTISSLQSEDFALYYCQQYTHWPITFGQGTRLEIK
4 | 3.35 | 0.18 | 0.16 | 73.1 | 2700 pg/mL | 2880 pg/mL | 3070 pg/mL | 3000 pg/mL | 3150 pg/mL | 3130 pg/mL | 2580 pg/mL | 2460 pg/mL | 2190 pg/mL | 2370 pg/mL | 0.26 | 0.08 | 0.08 | 39E5H1 fully human TIM-3 antibody (human IgG4, kappa) (antibody, V domains shown) VH: EVQLVESGGGLVQPGGSLRLSCAASGFTFSSYWMSWVRQAPGKGLEWVANIKRGGSERYYVDSVKGRFTISGDNAKNSVYLQMNSLRAEDTAVYYCARGSNWFDPWGQGTLVTVSS VL: ETVMTQSPAILSVSPGERATLSCRASQSVYSNLAWYQQKLGQAPRLLIYDASTRATGIPARFSGSGSGTEFTLTISSLQSEDFAVYYCQQYNNWPITFGQGTRLEIK
